The values that follow are results of earlier work, collected in patent publication US6774099B1, “Dishwashing detergent compositions containing mixtures or crystallinity-disrupted surfactants” (The Procter & Gamble Company, priority 1999, dated 2004).

For this series the following is noted: enzymes compared at 0.075 to 2.5 mg protein per liter.

B1: D96L: D96L lipolytic enzyme variant of the native lipase derived from Humicola lanuginosa (protein, UniProt O59952 23-291, looked up, variant D96L)
Lipase: EVSQDLFNQFNLFAQYSAAAYCGKNNDAPAGTNITCTGNACPEVEKADATFLYSFEDSGVGDVTGFLALDNTNKLIVLSFRGSRSIENWIGNLNFLLKEINDICSGCRGHDGFTSSWRSVADTLRQKVEDAVREHPDYRVVFTGHSLGGALATVAGADLRGNGYDIDVFSYGAPRVGNRAFAEFLTVQTGGTLYRITHTNDIVPRLPPREFGYSHSSPEYWIKSGTLVPVTRNDIVKIEGIDATGGNNQPNIPDIPAHLWYFGLIGTCL
As to B1, the “lard stain removal efficiency, factor over the wild-type lipase” value is given as 4.4.
